Target: PCSK9 (UniProt Q8NBP7)
Test: SPR

Sequence of UniProt Q8NBP7 (Q8NBP7 31-692): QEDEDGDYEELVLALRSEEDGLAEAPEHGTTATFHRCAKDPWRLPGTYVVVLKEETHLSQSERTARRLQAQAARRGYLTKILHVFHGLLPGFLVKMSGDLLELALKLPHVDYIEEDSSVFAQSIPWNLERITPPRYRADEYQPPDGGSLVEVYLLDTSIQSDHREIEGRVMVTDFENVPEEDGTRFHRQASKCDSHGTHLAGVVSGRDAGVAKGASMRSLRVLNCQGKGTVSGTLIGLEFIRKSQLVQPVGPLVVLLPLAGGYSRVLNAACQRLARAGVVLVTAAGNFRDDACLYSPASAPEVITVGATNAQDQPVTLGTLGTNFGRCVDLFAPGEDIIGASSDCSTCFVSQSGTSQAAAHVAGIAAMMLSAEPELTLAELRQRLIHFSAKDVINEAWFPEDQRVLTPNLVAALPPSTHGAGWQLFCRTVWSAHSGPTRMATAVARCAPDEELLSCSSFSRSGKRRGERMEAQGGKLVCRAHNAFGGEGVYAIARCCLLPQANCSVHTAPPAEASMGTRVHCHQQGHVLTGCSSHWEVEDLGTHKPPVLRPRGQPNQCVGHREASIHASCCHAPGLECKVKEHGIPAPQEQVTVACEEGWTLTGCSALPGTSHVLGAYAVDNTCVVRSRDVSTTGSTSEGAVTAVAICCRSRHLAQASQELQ

Kd: 0.03 nM
Substance: Bococizumab (antibody)

Source: paper PMC7592150
